Experimental findings from the emibetuzumab library of Makowski et al. (2022) are described below.

The chains are these.
B1: VH:VL chains; a variant is named by its letters at X, in order (parent)
chain 1: QVQLVQSGAEVKKPGASVKVSCKASGYTFTDYXMHWVRQAPGQGLEWMGXVNPNXXXTTYNQKFEGRVTMTTDTSTSTAYMELRSLRSDDTAVYYCARXNXLDXWGQGTTVTVSS
chain 2: DIQMTQSPSSLSASVGDRVTITCSVSSSVSSIYLHWYQQKPGKAPKLLIYSTSNLASGVPSRFSGSGSGTDFTLTISSLQPEDFATYYCQVYSGYPLTFGGGTKVEIK

In the data set the parent is B1. The data set is described as follows: yeast display scFab, FACS + sequencing. In short, it runs like this: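 For the non-specific binding call, a heavy-chain CDR mutant scFab library on the yeast surface was FACS-sorted and samples from two replicates were deep sequenced. Cells were labelled with anti-Myc and either biotinylated ovalbumin (260 μg/mL in PBSB, 3 h, room temperature) or soluble membrane proteins (130 μg/mL, 20 min on ice), with gates on the top 25% and bottom 10% of binders. With membrane protein and ovalbumin samples pooled, a sequence in ≥3 of 4 positive samples and no negatives was scored positive, and the converse rule scored negatives.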
Consider YRGRGDSV, for which the non-specific binding call is listed as “no binding”.

Consider FRGRDFVA, for which the non-specific binding call is on record as “binds”.

With FRGRDFVS, the non-specific binding call is listed as “binds”.

Consider YRGKSDGS, for which the non-specific binding call is “binds”.

For YRGRGAVF, the non-specific binding call is recorded as “binds”.

FRGRASAD: the non-specific binding call is listed as “binds”.

Consider YRGRGSAF, for which the non-specific binding call is listed as “binds”.

Take YRGRGSAY: the non-specific binding call is reported as “binds”.

Consider VRGRGFLD, for which the non-specific binding call is “binds”.

For the variant DRGRDSSA, the non-specific binding call was “no binding”.

With SRGRDAWA, the non-specific binding call is “binds”.

For the variant VRGRDDVV, the non-specific binding call was “no binding”.

SRGRGSLS: the non-specific binding call is “binds”.

For the variant YRGRASLY, the non-specific binding call is “binds”.

Take YRGRGASF: the non-specific binding call is on record as “binds”.

Consider YRGRDDWF, for which the non-specific binding call was “no binding”.

Take YRGKSSVD: the non-specific binding call was “binds”.

On to VRGRGDLA, for which the non-specific binding call is “no binding”.

For FRGRGSSD, the non-specific binding call is on record as “binds”.

Take FRGRGSSA: the non-specific binding call is reported as “binds”.

For FRGRGSSY, the non-specific binding call was “binds”.

In the case of VRGKGSLA, the non-specific binding call is “binds”.

As to YRGRDSVS, the non-specific binding call is listed as “binds”.

Consider VRGRDDSA, for which the non-specific binding call is “no binding”.

YRGKGAGF: the non-specific binding call was “binds”.

In the case of YRGKGAGY, the non-specific binding call is given as “binds”.

As to DRGRDAGD, the non-specific binding call is on record as “no binding”.

Take DRGRDAGA: the non-specific binding call is “no binding”.

For the variant FRGKGAAA, the non-specific binding call is on record as “binds”.

FRGKGAAS: the non-specific binding call is “binds”.

Turning to FRGKGAAV, the non-specific binding call is on record as “binds”.

Take YRGRGSVY: the non-specific binding call is recorded as “binds”.

For ARGRGSAA, the non-specific binding call is given as “binds”.

Regarding YRGRDYGV, the non-specific binding call is “binds”.

Regarding FRGRGSVD, the non-specific binding call was “binds”.

Take FRGRGSVY: the non-specific binding call is listed as “binds”.

As to FRGRGSVF, the non-specific binding call is on record as “binds”.

As to FRGRGSVV, the non-specific binding call is recorded as “binds”.

In the case of FRGRGSVS, the non-specific binding call is “binds”.

For the variant YRGRGSWY, the non-specific binding call is reported as “binds”.

For YRGKSAAV, the non-specific binding call is listed as “binds”.

Consider VRGKDSLD, for which the non-specific binding call is recorded as “no binding”.

As to SRGKGDAD, the non-specific binding call was “no binding”.

FRGRGAAY: the non-specific binding call is “binds”.

For the variant FRGRGAAS, the non-specific binding call is on record as “binds”.

VRGKGAVD: the non-specific binding call is recorded as “binds”.

YRGRGFGV: the non-specific binding call is reported as “binds”.

Turning to YRGRGFGS, the non-specific binding call is “binds”.

For the variant YRGRGFGY, the non-specific binding call is reported as “binds”.

YRGRGFGF: the non-specific binding call is “binds”.

Take FRGKGSWD: the non-specific binding call was “binds”.

For the variant VRGRDFGV, the non-specific binding call is on record as “binds”.

As for YRGKDVGV, the non-specific binding call is recorded as “binds”.

With YRGKSSAD, the non-specific binding call is “binds”.

Regarding SRGKGALD, the non-specific binding call is “binds”.

Regarding FRGRAAVD, the non-specific binding call is “binds”.

Regarding FRGRDSSF, the non-specific binding call is “binds”.

Regarding SRGRGFAA, the non-specific binding call was “binds”.

For DRGRDDGS, the non-specific binding call is reported as “no binding”.

Turning to YRGRDALV, the non-specific binding call was “binds”.

As for FRGRGDVD, the non-specific binding call is recorded as “binds”.

Consider FRGRGDVV, for which the non-specific binding call is reported as “binds”.

Regarding SRGRGSSS, the non-specific binding call is “binds”.

With VRGRGALF, the non-specific binding call was “binds”.

As to VRGRGALS, the non-specific binding call is “binds”.

VRGRAAGD: the non-specific binding call is “no binding”.

Take YRGKGAVS: the non-specific binding call was “binds”.

On to YRGKGAVF, for which the non-specific binding call is recorded as “binds”.

Take VRGRDAVS: the non-specific binding call is on record as “binds”.

With YRGKGFGS, the non-specific binding call is listed as “binds”.

Regarding VRGKGAWA, the non-specific binding call is “binds”.

With VRGKGAWD, the non-specific binding call is reported as “binds”.

Take FRGRDYAA: the non-specific binding call was “binds”.

As to YRGRDSWD, the non-specific binding call is “binds”.

With VRGKGSSS, the non-specific binding call was “binds”.

Consider VRGKGSSD, for which the non-specific binding call is listed as “no binding”.

Take YRGRDDGD: the non-specific binding call is reported as “no binding”.

FRGRGDWV: the non-specific binding call is on record as “no binding”.

With FRGRGSAY, the non-specific binding call is recorded as “binds”.

On to FRGRGSAA, for which the non-specific binding call is “binds”.

Turning to FRGRGSAD, the non-specific binding call was “binds”.

With FRGRGSAV, the non-specific binding call is reported as “binds”.

As to FRGRGSAF, the non-specific binding call is “binds”.

On to YRGKGVGD, for which the non-specific binding call is “binds”.

Take YRGKGVGV: the non-specific binding call is on record as “binds”.

In the case of DRGRDDVF, the non-specific binding call is “no binding”.

Turning to DRGRDDVV, the non-specific binding call is recorded as “no binding”.

On to DRGRDDVD, for which the non-specific binding call was “no binding”.

On to DRGRDDVA, for which the non-specific binding call was “no binding”.

As to FRGKGSAD, the non-specific binding call is “binds”.

FRGKGSAV: the non-specific binding call is “binds”.

For ARGRGSSS, the non-specific binding call is reported as “binds”.

Regarding YRGKGSAV, the non-specific binding call was “binds”.

In the case of YRGKGSAD, the non-specific binding call is listed as “binds”.

Take YRGKGSAA: the non-specific binding call is “binds”.

Consider SRGRGSGA, for which the non-specific binding call is “binds”.

Consider FRGRDFLF, for which the non-specific binding call was “binds”.

On to FRGRDFLD, for which the non-specific binding call is on record as “binds”.

With FRGRGFLS, the non-specific binding call is “binds”.

For the variant SRGRGFVA, the non-specific binding call is listed as “binds”.

As to SRGRGSVD, the non-specific binding call is given as “binds”.

On to YRGRGFLV, for which the non-specific binding call was “binds”.

For the variant YRGRGFVV, the non-specific binding call is “binds”.

As for YRGRGFVD, the non-specific binding call was “binds”.

For the variant YRGRGFVY, the non-specific binding call is listed as “binds”.

On to YRGRGFVA, for which the non-specific binding call is listed as “binds”.

Consider FRGRGSGV, for which the non-specific binding call is given as “binds”.

With FRGRGSGF, the non-specific binding call was “binds”.

As to YRGRGVAA, the non-specific binding call is on record as “binds”.

Take FRGRDYGY: the non-specific binding call is reported as “binds”.

For the variant FRGRDYGA, the non-specific binding call is recorded as “binds”.

FRGRDYGD: the non-specific binding call was “binds”.

On to FRGRDYGS, for which the non-specific binding call is given as “binds”.

On to FRGRDYGF, for which the non-specific binding call is “binds”.

Take YRGKGFVV: the non-specific binding call is “binds”.

As for YRGKGFVA, the non-specific binding call is on record as “binds”.

As to YRGKGDGS, the non-specific binding call is listed as “binds”.

With YRGKSALA, the non-specific binding call is recorded as “binds”.

On to YRGKGSGS, for which the non-specific binding call is “binds”.

Regarding YRGKGSGF, the non-specific binding call is “binds”.

Turning to YRGRGFSA, the non-specific binding call was “binds”.

As to YRGRGFSD, the non-specific binding call was “binds”.

On to SRGRGAGF, for which the non-specific binding call was “binds”.

VRGRGFVV: the non-specific binding call was “binds”.

For ARGKGSGD, the non-specific binding call is listed as “binds”.

Take DRGRDDAA: the non-specific binding call is listed as “no binding”.

Consider FRGKSAAA, for which the non-specific binding call is recorded as “binds”.
